From paper PMC8748748

Key:
Assay in all cases: potentiometry
[1] = target: Nterm1 (position 1, -----KCNTAT)
[2] = target: Lys1 (position 1, -----KCNTAT)
[3] = target: Tyr37 (position 37, VGSNTY-----)
[4] = target: His18 (position 18, ANFLVHS----)
His18 (position 18, …) = target: His18 (position 18, …)
[5] = 298 K, 40 mM SDS (stated as the ionic strength), none (ligand 0.5 mM; electrode calibrated by titrating HClO4 with NaOH), metal-free peptide in SDS, helical-like structure by CD
[6] = not stated for the quoted titrations (the Figure 4 competition plot caption gives T = 298 K), metal-free peptide in water, cited from earlier work
[7] = 298 K, 40 mM SDS (stated as the ionic strength), none (ligand 0.5 mM, Cu(II):ligand 0.9:1), Cu(II)-bound peptide (1:1 complex) in SDS, the titrating residue is not coordinated to the metal

Protein | pKa [1, 5] | pKa [1, 6] | pKa [2, 7] | pKa [2, 5] | pKa [2, 6] | pKa [3, 7] | pKa [3, 5] | pKa [3, 6] | pKa [1, 7] | pKa [4, 5] | pKa [4, 6] | pKa (His18 (position 18, …); [5]) | pKa (His18 (position 18, …); [6])
KCNTATCATQRLANFLVRSSNNLGPVLPPTNVGSNTY [Rat amylin (islet amyloid polypeptide, IAPP) (Rattus norvegicus)] | 7.85 | 7.13 | 10.04 | 10.44 | 10.20 | 9.61 | 10.08 | 9.49 |  |  |  |  | 
KCNTATCATQRLANFLVHS [Amylin(1-19), membrane-disrupting fragment of human amylin (IAPP) (Homo sapiens)] | 8.18 | 7.97 | 10.05 | 9.88 | 10.83 |  |  |  | 8.98 | 7.28 | 6.04 |  | 
KCNTATCATQRLANFLVHSSNNFGPILPPTNVGSNTY | 8.39 | 7.53 | 10.89 | 10.92 | 10.32 | 10.28 | 9.93 | 9.67 |  |  |  | 6.76 | 5.79
KCNTATCATQRLANFLVHSSNNFGPILPPTNVGSNTY [Ac-pramlintide (N-acetylated pramlintide) (Homo sapiens (synthetic analogue); A25P;S28P;S29P)] |  |  |  | 10.50 |  |  | 10.01 |  |  |  |  | 7.57 | 
